# Source: patent publication US20130330359A1 (AbbVie / Abbott, published 2013)
# Positions count from the first letter of the chain named.
# T1: RGMc antigen: amino acids 33-391 of RGMc followed by human Fc (human, UniProt Q6ZVN8 33-391)
# T1 construct: also called RGMc-huFc; RGMc-Fc; not shown: human Fc
# T1 sequence: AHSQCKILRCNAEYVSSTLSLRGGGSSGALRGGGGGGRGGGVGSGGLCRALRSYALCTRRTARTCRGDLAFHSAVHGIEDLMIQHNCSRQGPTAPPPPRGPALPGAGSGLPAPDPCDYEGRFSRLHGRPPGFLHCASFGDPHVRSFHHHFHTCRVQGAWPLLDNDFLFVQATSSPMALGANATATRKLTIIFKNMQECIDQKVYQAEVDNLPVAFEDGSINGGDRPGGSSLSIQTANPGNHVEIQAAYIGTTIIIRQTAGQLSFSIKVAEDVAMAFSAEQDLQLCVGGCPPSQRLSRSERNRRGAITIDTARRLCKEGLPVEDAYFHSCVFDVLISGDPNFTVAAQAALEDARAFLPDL
# T2: carrier free RGMc (R&D Systems) (human, UniProt Q6ZVN8 36-400)
# T2 construct: also called RGMc-CF
# T2 sequence (looked up): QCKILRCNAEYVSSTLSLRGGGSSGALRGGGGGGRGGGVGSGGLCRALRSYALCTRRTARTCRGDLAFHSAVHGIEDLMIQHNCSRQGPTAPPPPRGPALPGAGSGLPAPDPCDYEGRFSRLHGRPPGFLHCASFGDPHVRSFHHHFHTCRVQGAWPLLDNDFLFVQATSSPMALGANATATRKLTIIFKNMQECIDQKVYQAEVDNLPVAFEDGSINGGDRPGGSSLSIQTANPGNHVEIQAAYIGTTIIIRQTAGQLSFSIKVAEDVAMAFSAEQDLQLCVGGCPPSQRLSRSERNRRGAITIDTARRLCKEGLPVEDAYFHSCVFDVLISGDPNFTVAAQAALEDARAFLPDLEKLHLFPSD
# B1: 1A-2860-475 (antibody, V domains shown)
# VH: DVLLQESGPDLVKPSQSLSLTCTVTGYSISSGYSWHWIRQFPGNKLEWMAYIHYTGNTNYNPSLKSRISITRDTSKNQFFLHLNSVTTEDTATYYCALFGLSGFWGQGTLVTVSA
# VL: DVLMTQTPLSLPVSLGDQASISCRSSQTIVHSNGNTYLDWYLQKPGQSPKVLIYKVSNRFSGVPDRFSGSGSGTDFTLKISRVEAEDLGVYFCLQGSHVPWTFGGGTQLEIKR
# notes: The parent line 1A-2860 and subclone 1A-2860-177 used in the assays are treated here as the same antibody; also called 1A-2860-177
# B2: 1B-3363-715 (antibody, V domains shown)
# VH: DVQLQESGPDLVKPSQSLSLTCTVTGYSITSGYSWHWIRQFPGNKLEWMGYIHYSGNTDYNPSLKSRISFTRDTSKNQFFLQLNSVTTEDTATYFCAIGTGPWGQGTTLTVSS
# VL: B1 VL with T28N, N35H, D39E, V51L, F92Y, L94F, Q108K
# notes: The parent line 1B-3363 and subclone 1B-3363-502 used in the assays are treated here as the same antibody; also called 1B-3363-502
# B3: 1A-2989-187 (antibody, V domains shown)
# VH: EVQLQQSGAELVRSGASVKLSCTASGFNIRDFYIHWVKQRPEQGLEWLGWIDPENGDIEYAPKFQGKATMTADTSSNTAYLQLNSLTSEDTALYYCNGNGYYLDYWGQGTTLTVSS
# VL: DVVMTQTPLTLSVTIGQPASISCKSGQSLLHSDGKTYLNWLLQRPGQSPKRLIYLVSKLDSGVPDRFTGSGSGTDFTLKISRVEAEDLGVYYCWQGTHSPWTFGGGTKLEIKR
# Target: T1, RGMc antigen: amino acids 33-391 of …
# Experiment: chemiluminescence immunoassay: supernatant mAb captured on sheep anti-mouse IgG Fc, RGMc-huFc at 200 ng/mL, acridinium-labeled goat anti-RGMc detection
# Protocol: Cell supernatant samples were analyzed for anti-RGMc antibodies by Chemiluminescence immunoassay (CIA). Sheep anti-mouse IgG Fc (Jackson Immunoresearch, West Grove, Pa.) was coated on 96 well micro-titer CIA plates (NUNC) at 5 ug/mL. After the capture reagent had been coated on the solid phase, it was removed and any open binding sites on the plates were blocked using a Fish gel/PBS (2% v/v) block solution. The wells were washed with distilled water and cell supernatants were added to the blocked plates and allowed to incubate at room temperature for at least one hour. The anti-mouse IgG Fc captures the anti-RGMc mouse antibody from the supernatant. Following the incubation, the supernatants were washed off using distilled water. A mouse/human IgG chimeric antibody (Abbott Laboratories) diluted in fish gel block to 5 ug/ml was added to each well and incubated for approximately 30 minutes at room temperature to block any captured mAbs that are specific for human IgG Fc portion of the immunogen. Following the incubation, the human IgG blocking solution was washed off using distilled water. RGMc-huFc antigen was then added to the plates at 200 ng/mL in fish gel block and incubated for 30 minutes at room temperature. Following this incubation, the antigen was washed from the plates using distilled water. Acridinium labeled goat anti-RGMc polyclonal antibody (R&D Systems, Minneapolis, Minn.) was diluted to 200 ng/ml in fish gel block, then added to the plates and allowed to incubate for 30 minutes at room temperature. The plates were washed with distilled water then processed on the Microbeta Jet instrument (Perkin Elmer, Waltham, Mass.). The Microbeta Jet adds Architect© Pre-Trigger and Trigger solutions (Abbott Laboratories). The plates are then read for flash chemiluminescence in luminescent counts per second (LCPS). […] The positive control (PC) used in this assay was spent medium from unfused splenocytes harvested from mouse #814 that were cultured for 7 to 10 days at 37° C.
row,LCPS,Binder
1,6610 LCPS,B1
2,5260 LCPS,B2
3,2500 LCPS,B3

# Target: T2, carrier free RGMc (R&D Systems)
# Experiment: direct EIA: carrier-free RGMc coated at 0.5 ug/mL; supernatant diluted 1:125; goat anti-mouse IgG-HRPO
# Protocol: Clones were then tested for cross-reactivity with RGMa and RGMb by EIA. Carrier free RGMa, RGMb, or RGMc (R&D Systems) was coated on the solid phase of micro-titer EIA plates at 0.5 ug/mL. After the antigen had been coated on the solid phase, it was removed and any open binding sites on the plates were blocked using fish gel block solution. The wells were washed with distilled water following this incubation. Cell supernatants and control reagents were added to the blocked plates and allowed to incubate at room temperature for at least one hour. The negative control was a purified mouse mAb from a different antigen system. The positive control for RGMa, RGMb, & RGMc was a goat anti-RGMa, RGMb, or RGMc polyclonal antibody (R&D Systems). Following this incubation, the solutions were removed from the plates and they were washed with distilled water. Donkey anti-Goat IgG-HRPO diluted to approximately 200 ng/mL in block solution was added to the plates with the positive control test samples and goat anti-mouse IgG-HRPO (Jackson Immunoresearch) diluted to approximately 200 ng/mL in block solution was added to the plates with the fusion #1 test samples. All plates were allowed to incubate for 30 minutes at room temperature. The plates were washed with distilled water and o-phenylenediamine substrate was used as the chromogen to generate signal. Plates were read at 492 nm and the results were analyzed.
row,absorbance at 492 nm,Binder
1,1.34,B1
2,2.53,B2
3,1.58,B3
